# Measured values from PMC6949295 (2020).
# B1: Exo70-Flag [rat] / HA-Sec6 [not stated] (parent)
# chain 1: MIPPQEASARRREIEDKLKQEEETLSFIRDSLEKSDQLTKNMVSILSSFESRLMKLENSIIPVHKQTENLQRLQENVEKTLSCLDHVISYYHVASDTEKIIREGPTGRLEEYLGSMAKIQKAVEYFQDNSPDSPELNKVKLLFERGKESLESEFRSLMTRHSKVISPVLVLDLISADDELEVQEDVVLEHLPESVLQDVIRISRWLVEYGRNQDFMNVYYQIRSSQLDRSIKGLKEHFRKSSSSSGVPYSPAIPNKRKDTPTKKPIKRPGRDDMLDVETDAYIHCVSAFVRLAQSEYQLLMGIIPEHHQKKTFDSLIQDALDGLMLEGENIVSAARKAIIRHDFSTVLTVFPILRHLKQTKPEFDQVLQGTAASTKNKLPGLITSMETIGAKALEDFADNIKNDPDKEYNMPKDGTVHELTSNAILFLQQLLDFQETAGAMLASQETSSSATSYNSEFSKRLLSTYICKVLGNLQLNLLSKSKVYEDPALSAIFLHNNYNYILKSLEKSELIQLVAVTQKTAERSYREHIEQQIQTYQRSWLKVTDYIAEKNLPVFQPGVKLRDKERQMIKERFKGFNDGLEELCKIQKAWAIPDTEQRDKIRQAQKSIVKETYGAFLHRYSSVPFTKNPEKYIKYRVEQVGDMIDRLFDTSA
# chain 2: MCKDSACFSTMKETDLEAVATAVQRVAGMLQRPDQLDKVEQYRRREARKKASVEARLKAAIQSQLDGVRTGLSQLHNALNDVKDIQQSLADVSKDWRQSINTIESLKDVKDAVVQHSQLAAAVENLKNIFSVPEIVRETQDLIEQGALLQAHRKLMDLECSRDGLMCEQYRMDSGNKRDMTLIHGYFGSTQGLSDELAKQLWMVLQRSLVTVRRDPTLLVSVVRIIEREEKIDRRILDRKKQTGFVPPGRPKNWKEKMFAVLDRTVTTRIEGTQADTRESDKMWLVRHLEIIRKYVLDDLVIAKNLLVQCFPPHYDIFKNLLSMYHQALSIRMQDLASEDLEANEIVSLLTWVLNTYTSAEMMGNVELAPEVDVNALEPLLSPNVVSELLDTYMSTLTSNIIAWLRKALETDKKDWSKETEPEADQDGYYQTTLPAIVFQMFEQNLQVAAQISEDLKTKVLVLCLQQMNSFLSRYKEEAQLYKEEHLRNRQHPHCYVQYMVAIINNCQTFKESIISLKRKYLKPETEESLCQSQPSMDGILDAIAKEGCSSLLEEVFLDLEQHLNELMTKKWMLGSNAVDIICVTVEDYFNDFAKIKKPYKKRMTAEAHRRVVVEYLRAVMQKRISFRSAEERKEGAEKMVREAEQLRFLFRKLASGFGEDADGHCDTIVAVAEVIKLTDPSLLYLEVSTLVSKYPDIRDDHIGALLALRGDASRDMKQTIMETLEQGPMQASPNYVPIFQEIVVPSLNVAKLLK
# B2: Exo70 wild type, HA-tagged and Flag-tagged copies co-expressed [rat] / itself (parent)
# chain: B1 chain 1
# B3: Exo70-Flag [rat] / HA-Sec8 [not stated] (parent)
# chain 1: B1 chain 1
# chain 2: MAAEAAGGKYRSTVSKSKDPSGLLISVIRTLSTSDDVEDRENEKGRLEEAYEKCDRDLDELIVQHYTELTTAIRTYQSITERITNSRNKIKQVKENLLSCKMLLHCKRDELRKLWIEGIEHKHVLNLLDEIENIKQVPQKLEQCMASKHYLSATDMLVSAVESLEGPLLQVEGLSDLRLELHSKKMNLHLVLIEELHRHLYIKSTSRVVQRNKEKGKMSSHGKDASPGPLIDVSNISTPRKFLDATQYSAAGSSSVREMNLQDIKEDLDCDPEENSTLFMGILIQGLARLKKIPETVKAIKERLEQELKQIVKRSTTQVADSAYQRGESLTVDNQPRLLLELLELLFDKFNAVASAHSIVLGYLQDSVGTQPTQQEEIKLYDMADVWVKIQDVLQMLLTEYLDMKNTRTASEPSAQLSYASTGREFAAFFAKKKPQRPKNSLFKFESSSHAISMSAYLREQRRELYSRSGELQGGPDDNLIEGGGTKFVCKPGARNITVIFHPLLRFIQEIEHALGLGPAKQCLLREFLTIYIKNIFLNQVLTEINKEIEGVTKTSDPLKILANADTMKVLGVQRPLLQSTIIVEKTVQDLMNLMHDLSAYSDQFLNMVCVKLQEYKDTCSTAYRGIVQSEEKLVISASWAKDDDISRLLKSLPNWTNMAQPKQLRPKREEEEDFIRAAFGKESEVLIGNLGDKLIPPQDILRDVSDLKALANMHESLEWLAGRTKSAFSSLSASQMLSPAQESHVNMDLPPVSEQIMQTLSELAKSFQDMADRCLLVLHLEVRVHCFHYLIPLAKEGNYAIVANVESMDYDPLVVKLNKDISAMEEAMSASLQQHKFQYIFEGLGHLISCILINGAQYFRRISESGIKKMCRNIFVLQQNLTNITMSREADLDFARQYYEMLYNTADELLNLVVDQGVKYTELEYIHALTLLHRSQTGVGDQTTQNTRLQRLKEIICEQAAIKQATKDKKITTV
# Variants of: B1
# Experiment: co-immunoprecipitation (IP: HA, blot: Flag)
# Conditions: with HA-Sec6; 293T cells; parent: 1
row,Variant,response (relative band intensity)
1,chain 1 S47D S59D S89D,0.31

# Variants of: B2
# Experiment: co-immunoprecipitation (IP: HA, blot: Flag)
# Conditions: with itself; 293T cells; parent: 1
row,Variant,response (relative band intensity)
1,chain 1 S47D S59D S89D,0.03
2,chain 1 S59D S89D,0.41
3,chain 1 S89D,0.46
4,chain 1 S47D S89D,0.18

# Same assay, conditions: with itself; 293T cells; with Myc-ULK1 co-expressed; parent: 0.35
row,Variant,response (relative band intensity)
1,chain 1 S47A,0.87
2,chain 1 S89A,1
3,chain 1 S59A,1.16
4,chain 1 S47A S59A S89A,2.44

# Same assay, conditions: with itself; 293T cells; without Myc-ULK1; parent: 1
row,Variant,response (relative band intensity)
1,chain 1 S47A,1
2,chain 1 S89A,1.17
3,chain 1 S59A,1.31
4,chain 1 S47A S59A S89A,1.49

# Variants of: B3
# Experiment: co-immunoprecipitation (IP: HA, blot: Flag)
# Conditions: with HA-Sec8; 293T cells; parent: 1.03
row,Variant,response (relative band intensity)
1,chain 1 S47D S59D S89D,0.45
